Test system: MS2 coat protein
Assay: apparent KD of MS2 coat protein; designed switch direction (-1 OFF switch, 1 ON switch): -1; higher = weaker reporter binding
Method in brief: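 SNAP-549-labelled MS2 coat protein was titrated, doubling from 0.7 or 1.5 nM to 3 µM, over designed RNA switches transcribed on Illumina chips by stalled E. coli RNA polymerase. Runs were done without input, with 200 uM small-molecule ligand, or with an oligonucleotide input. Apparent KD is the per-design median over clusters of curve-fitted normalised fluorescence.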

[1] = input ligand: microRNA oligo, concentration not stated
[2] = Eterna round: R95, input ligand: FMN 200 uM
[3] = Eterna round: R95, input ligand: microRNA oligo, concentration not stated
[4] = Eterna round: R95, input ligand: none

Sequence | apparent KD of MS2 coat protein (input ligand: FMN 200 uM) | apparent KD of MS2 coat protein (input ligand: none) | apparent KD of MS2 coat protein [1] | apparent KD of MS2 coat protein [2] | apparent KD of MS2 coat protein [3] | apparent KD of MS2 coat protein [4]
AUGCGACAUGAGGAUCACCCAUGUGAGGAUAUGCGAAUGCAGACUUCGGUUUGAUAGAGCAGAAGGCGCAGGUA [EX1 #15] (Eterna round: R97, puzzle: Exclusion 1) | 58.5 nM | 29.4 nM | – | – | – | –
AUGCUCCGUGUAGGAUAUCGCCGUACCACUCGGCGAGAAGGACAUGAGGAUCACCCAUGUAUGUUAUUAUCACGUGUGGCGCGC [Design 50] (Eterna round: R96, puzzle: Exclusion NG 1) | 46 nM | 20.5 nM | 12.9 nM | – | – | –
AUGGCAAAGUUAGGAUAUGCAGUCUCCAAGACUGCAGAAGGAACGGUCCUCCUCCCUGAAACAUGAGGAUCACCCAUGUAAAGC [Eternabot solution 45] (Eterna round: R96, puzzle: Exclusion NG 1) | 56.4 nM | 93.8 nM | 53.7 nM | – | – | –
AUGUGCACGCUGCGGUCCUACAUGAGGAUCACCCAUGUGGUCUGGUGGCGUGGGUCACCGGACUUGGCUCGUCUUGC [salish99_S_TOV1_R5_058] (Eterna round: R97, puzzle: Sensor, turn-off variant 1) | 21.4 nM | 21.2 nM | – | – | – | –
AUUAAACAUGUAGGAUAUGCGUGGCGAAGCUAUGCAGAAGGACAUGAGGAUCACCCAUGUAAAAGCGUCUGCGUACAGAUGCAA [Mat - Exclusion NG 1 - Mod of JL - D84] (Eterna round: R96, puzzle: Exclusion NG 1) | 468 nM | 38.9 nM | 28 nM | – | – | –
AUUAAGCAGCAGGAUAUAAGUAUCUGAUGGUGGUUAGAAGGGCUGACAUGAGGAUCACCCAUGUGCUCUUCGUG [Tieruseres] (puzzle: Exclusion 6) | – | – | – | 16.1 nM | 10.1 nM | 14.1 nM
AUUAGCGUAGGAUAUUGAAACAUGUACAUGAGGAUCACCCAUGUGAGGUGAGUCUUCGUUUAAGAAGGGCGCAGAA [EX5 #40] (Eterna round: R97, puzzle: Exclusion 5) | 213 nM | 1030 nM | – | – | – | –
AUUAUGUCAGGAUAUCAGUAGUAAAAAAAAAAAAUUACUACUGAGAAGGGACAUGAGGAUCACCCAUGUCAAAA [EX4 308: Super Stable 8] (Eterna round: R96, puzzle: Exclusion 4) | – | – | 21.3 nM | – | – | –
AUUCCUCCUGUGAGGAUAUGCGUUACGCACCCGUCGCAGAAGGCACAUGAGGAUCACCCAUGUGAGUUACCAAU [BmEX4 A.11] (Eterna round: R97, puzzle: Brourd's mod of Exclusion 4) | 166 nM | 18.9 nM | – | – | – | –
AUUUAACAUGAGGAUCACCCAUGUGAGGAUAUGUCCAUUUUAAACAAAUAGGAUAUGGACAGAAGGCACACCGG [JR_Exclusion1_Sub007] (puzzle: Exclusion 1) | – | – | – | – | 219 nM | –
AUUUAGAGAGGAUAUAUAUUGUGAAACAUGAGGAUCACCCAUGUAAUAAUAUGGAUAUAAAUAGAAGGCUCAUUUU [Mat - Exclusion 5 - JL mod - D11] (puzzle: Exclusion 5) | – | – | – | 26.1 nM | 21.2 nM | 25.1 nM
AUUUAGAGAGGAUAUAUAUUGUGAAACAUGAGGAUCACCCAUGUAAUAAUAUGGAUGUAAAUAGAAGGCUCAUUUA [Mat - Exclusion 5 - JL mod - D9] (puzzle: Exclusion 5) | – | – | – | – | 41.3 nM | –
AUUUUAACAUAGGAUAUCGAAUUUAUCAUUUAACGAGAAGGAUGAACAUGAGGAUCACCCAUGUGGUAUCAUGG [JL-ex6-3.01] (puzzle: Exclusion 6) | – | – | – | 160 nM | 265 nM | 105 nM
AUUUUGUGAGGAUAUCAGGUGUGCUAGCGUACUGGUACAUCUGAGAAGGCACAUGAGGAUCACCCAUGUUUAUU [Mat - Exclusion 4 - Mod of JL - D39] (puzzle: Exclusion 4) | – | – | – | – | 25.6 nM | –
CAAAAGCUAGGAUAUCGUAAACAAGACAUGAGGAUCACCCAUGUGUCCGUGGCUGACCUCCGAGAAGGAGCAAUAU [Bilate] (puzzle: Exclusion 5) | – | – | – | 23.6 nM | 16.8 nM | 18.6 nM
CAAAAGGUAGGAUAUUAUGCCUGUAACAUGAGGAUCACCCAUGUGGUCCGAGACGGAGUUUAAGAAGGACCGAAAA [Masomariat] (puzzle: Exclusion 5) | – | – | – | 895 nM | 169 nM | 190 nM
CAAAGAUAAGGAUAUUGAAGGUUCGACAUGAGGAUCACCCAUGUUAUGUUGGAAAAGGGACAAGAAGGUAUGAAAC [salish99_ex5_r4_211] (Eterna round: R97, puzzle: Exclusion 5) | 28.2 nM | 35.8 nM | – | – | – | –

Sequence | apparent KD of MS2 coat protein (input ligand: FMN 200 uM) | apparent KD of MS2 coat protein (input ligand: none) | apparent KD of MS2 coat protein [1] | apparent KD of MS2 coat protein [2] | apparent KD of MS2 coat protein [3] | apparent KD of MS2 coat protein [4]
CAAGAAUCUAUAUAAAGGCACAUGAGGAUCACCCAUGUGGUCCGUAAAAUCAUGCGACAAGCCAUUUGCUCGUCGUG [Eternabot (L2) Solution 30] (Eterna round: R97, puzzle: Sensor, turn-off variant 1) | 33.2 nM | 37.6 nM | – | – | – | –
CAAGCUUUGCGAGGAUAUGAUGGCCUAUAUGCCUCAGAAGGCGCAGAAACUUGAGGAUCACCCAAGUGAUGCAAAUACGAAAAU [Mutated MS2 EX1.9] (Eterna round: R96, puzzle: Exclusion NG 1) | 78.1 nM | 21.8 nM | 17.3 nM | – | – | –
CAAUAACAAGCGAGAUCCUACAUGAGGAUCACCCAUGUGCUCGUCUUAAAAGGUACUGUGACGAAAGUCACGGUACC [Eli 87 + Mat D67 3] (Eterna round: R97, puzzle: Sensor, turn-off variant 1) | 16.9 nM | 23 nM | – | – | – | –
CAAUUCCGAGGAUAUACAUGAGGAUCACCCAUGUCGGGCCUCAGCGUUUAGCGCCUCAGUAGAAGGCGGGUUUC [JL Riri mod 3] (puzzle: Exclusion 3) | – | – | – | – | 24.4 nM | –
CACAAAGUAGGAUAUAGAAUAAAAGACAUGAGGAUCACCCAUGUGUCGUUCAAGGUGAACCUAGAAGGACUGAAAA [EX5 A.28] (Eterna round: R97, puzzle: Exclusion 5) | 45.1 nM | 116 nM | – | – | – | –
CACAUGUCAGGAUAUGGUCAAGACACAGAAUUAGCUGCGAGCCAGAAGGGACAUGAGGAUCACCCAUGUUCCUG [Eternabot (L1) Solution 58] (Eterna round: R97, puzzle: Exclusion 4) | 19.5 nM | 16.3 nM | – | – | – | –
CACCGUUAAAGAGGAUAUCGUACAUGAGGAUCACCCAUGUAAUAAAUGAGAAUUUCGGAUGUAUGCGAGAAGGCUUAAAUCGGC [Ostracism 47 - Jieux - Exclusion NG 2] (Eterna round: R96, puzzle: Exclusion NG 2) | – | – | 39.5 nM | – | – | –
CACCGUUACACAGGAUAUCUUACAUGAGGAUCACCCAUGUAAUAAAUGAGAAUUUCGAAUGUAAAAGAGAAGGGUGGAAUCGGC [Ostracism 66 - Jieux - Exclusion NG 2] (Eterna round: R96, puzzle: Exclusion NG 2) | 73.1 nM | 30.3 nM | 21.8 nM | – | – | –
CACCGUUACUGAGGAUAUCGUACAUGAGGAUCACCCAUGUAAUAAAUGAGAAUUUCGGAUGUAUGCGAGAAGGCAGGAAUCGGC [Ostracism 36 - Jieux - Exclusion NG 2] (Eterna round: R96, puzzle: Exclusion NG 2) | 31.6 nM | 32.2 nM | 19.5 nM | – | – | –
CACCGUUAGCGAGGAUAUCGUACAUGAGGAUCACCCAUGUAAUAAAUGAGAAUUUCGGAUGUAUGCGAGAAGGCGCAAAUCGGC [Ostracism 41 - Jieux - Exclusion NG 2] (Eterna round: R96, puzzle: Exclusion NG 2) | – | – | 45.3 nM | – | – | –
CACCUGAAUACAGGAUAUCUUACAUGAGGAUCACCCAUGUAAUAAAUGAGAAUUUCGAAUGUAAUAGAGAAGGGUAGAUAAGGC [Ostracism 87 - Jieux - Exclusion NG 2] (Eterna round: R96, puzzle: Exclusion NG 2) | 39.2 nM | 33.1 nM | 26.5 nM | – | – | –
CACGAAAUGUGAGGAUAUGUGCGACAAAGUUGCACAGAAGGCACAUGAGGAUCACCCAUGUAAGCUAGGUCGAAAGACCUAGCG [Omei Exc(NG)1 Av2] (Eterna round: R96, puzzle: Exclusion NG 1) | 269 nM | 89.8 nM | 56.3 nM | – | – | –
CACUUACAUGAGGAUCACCCAUGUGAGGAUAUCGUGACCUGACGAGAAGUCAAUGUCACGAGAAGGCACGUGGG [Exclusion 1 (Mod 3 solution 97 by Eternabot)] (Eterna round: R97, puzzle: Exclusion 1) | 11.9 nM | 35.9 nM | – | – | – | –
CAGCCCUGAGGAUAUCCAUCCUUGUACAUGAGGAUCACCCAUGUCUCCCUCUGGGCUUUCGGAGAAGGCAGGUAUC [Megrez-6.2] (Eterna round: R97, puzzle: Exclusion 5) | 43.2 nM | 44.5 nM | – | – | – | –
CAGCUGAAAGUCAGGAUAUCUAGAGCCUCGGCUCUAGAGAAGGGACAUGAGGAUCACCCAUGUGGUCACAGCUG [BmEx4/5-A2] (Eterna round: R97, puzzle: Brourd's mod of Exclusion 4) | 93.5 nM | 619 nM | – | – | – | –
CAGCUGAAUGUGAGGAUAUCUAGAGCCUCGGCUCUAGAGAAGGCACAUGAGGAUCACCCAUGUCUCAACAGCUG [BmEx4/2-A2] (Eterna round: R97, puzzle: Brourd's mod of Exclusion 4) | 249 nM | 35.9 nM | – | – | – | –
